Test results published in US20260085097A1 (TEXAS A AND M UNIVERSITY SYSTEM, published 2026).
Numbering of substitutions follows the chain as printed. Like-named read-outs stand apart in the source and are kept apart here.

Key:
[1] = target: T1, Shiga toxin 2a (Stx2a) holotoxin (Escherichia coli (Shiga …, UniProt P09385 23-319; P09386 20-89); test: cell-based or functional assay
T1 sequence (P09385 23-319 limits assumed, one chain of several): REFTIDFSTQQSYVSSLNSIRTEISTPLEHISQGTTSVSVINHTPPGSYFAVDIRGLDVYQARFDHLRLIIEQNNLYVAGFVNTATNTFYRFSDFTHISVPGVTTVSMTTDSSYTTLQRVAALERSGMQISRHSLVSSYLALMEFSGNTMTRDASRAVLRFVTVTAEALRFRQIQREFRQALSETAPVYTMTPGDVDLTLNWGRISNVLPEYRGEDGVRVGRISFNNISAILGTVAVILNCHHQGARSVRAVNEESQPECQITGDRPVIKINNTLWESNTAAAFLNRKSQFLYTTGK

[2] = target: T1, Shiga toxin 2a (Stx2a) holotoxin; test: BLI (BLItz), biotinylated Stx2a holotoxin on streptavidin sensor
[3] = target: T1, Shiga toxin 2a (Stx2a) holotoxin
[4] = target: T1, Shiga toxin 2a (Stx2a) holotoxin; test: BLI (BLItz), biotinylated Stx2a holotoxin on streptavidin sensor, apparent KD
[5] = target: T1, Shiga toxin 2a (Stx2a) holotoxin; remark: listed apart in the source
[6] = target: T2, Stx2a-A1 fragment with a C-terminus 6xHis tag (Escherichia coli (Shiga …, UniProt P09385 23-272)); test: ELISA at pH 7.4, plate coated with 4 ug/mL Stx2a-A1
T2 sequence (P09385 23-272, tags left off): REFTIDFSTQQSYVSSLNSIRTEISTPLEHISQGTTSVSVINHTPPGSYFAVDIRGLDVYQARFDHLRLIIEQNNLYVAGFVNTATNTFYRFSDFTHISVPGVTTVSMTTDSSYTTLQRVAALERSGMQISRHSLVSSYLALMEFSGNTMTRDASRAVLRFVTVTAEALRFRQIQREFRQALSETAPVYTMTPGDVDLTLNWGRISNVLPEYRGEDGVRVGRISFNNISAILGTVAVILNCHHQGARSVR

[7] = target: T2, Stx2a-A1 fragment with a C-terminus …; test: ELISA at pH 6.0, plate coated with 4 ug/mL Stx2a-A1
[8] = target: T1, Shiga toxin 2a (Stx2a) holotoxin; remark: listed apart in the source
[9] = target: T1, Shiga toxin 2a (Stx2a) holotoxin; remark: listed apart in the source
[10] = target: T1, Shiga toxin 2a (Stx2a) holotoxin; test: screen of E. coli lysates for Stx2a binding after off-rate selection
[11] = target: T1, Shiga toxin 2a (Stx2a) holotoxin; test: ELISA, plate coated with full-length Stx2a
[12] = target: Shiga toxin 2a (Stx2a) holotoxin (Escherichia coli (Shiga …, UniProt P09385 23-319; P09386 20-89); test: cell-based or functional assay; remark: listed apart in the source
Target sequence in this assay (P09385 23-319, chain 1 of 2): as the sequence (P09385 23-319 limits assumed, one chain of several) above
Target sequence in this assay (P09386 20-89, tags left off, chain 2 of 2): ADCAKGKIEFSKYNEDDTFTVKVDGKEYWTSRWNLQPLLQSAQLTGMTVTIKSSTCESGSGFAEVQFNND

B1: DARPin #3 (designed binder)
chain: MGSSHHHHHHSSGLVPRGSHMEQKLISEEDLGSDLGKKLLEAARAGQDDEVRILMANGADVNACDSNGRTPLHLAAVRGHLEIVEVLLKNGADVNAWDVIGKTPLHLAADGGHLEIVEVLLKNGADVNAWDLIGRTPLHLAALDGHLEIVEVLLEHGADVNAYDRPGHTPLHLAARRGHLEIVEVLLKYGADVNAQDKFGKTAFDISIDNGNEDLAEILQSSS
EC50 of Stx2a neutralization, Vero E6 toxin challenge assay (cell viability) [1]: > 1000 nM | Kd [2]: 8.83 nM | koff [3]: 0.0438 s⁻¹ | Kd [4]: 8.8 nM

B2: DARPin HT (designed binder)
chain: MGSSHHHHHHSSGLVPRGSHMEQKLISEEDLGSDLGKKLLEAARAGQDDEVRILMANGADVNAGDPFGFTPLHLAAMFGHLEIVEVLLKNGADVNAHDEYGFTPLHLAAVVGHLEIVEVLLKNGADVNACDNQGGTPLHLAAHTGHLEIVEVLLKHGADVNAQDKFGKTAFDISIDNGNEDLAEILQSSS
EC50 (read off the curve) [5]: ~1 nM | EC50 of Stx2a neutralization, Vero E6 toxin challenge assay [1]: 1900 nM | EC50 [6]: 1.2 nM | EC50 [7]: 1.2 nM | Kd [4]: 409 nM

B3: DARPin 10B (designed binder)
chain: B2 chain with H143V, T144D
Kd [8]: 3540 nM | EC50 of Stx2a neutralization, Vero E6 toxin challenge assay [1]: 2700 nM | EC50 of Stx2a neutralization, Vero E6 toxin challenge assay (cell viability) [1]: > 1000 nM | EC50 [6]: 3.7 nM | EC50 [7]: 3.8 nM | Kd [2]: 3540 nM | EC50 (read off the curve) [9]: ~4 nM | Kd [4]: 3450 nM

B4: DARPin Off-rate #26 (designed binder)
chain: B2 chain with D98E, A142S, N177T
binding result [10]: binds

B5: DARPin Off-rate #27 (designed binder)
chain: B2 chain with I53F, V94E, D98E
binding result [10]: binds

B6: DARPin Off-rate #28 (designed binder)
chain: B2 chain with F78Y, D98E, H143R, T144I
binding result [10]: binds

B7: DARPin RI (designed binder)
chain: B2 chain with H143R, T144I
EC50 (read off the curve) [5]: ~1 nM | fold improved toxin-binding ability in ELISA (against parent 10B) [11]: ~8 fold | fold improved toxin neutralization activity in the Vero E6 toxin challenge assay [1]: ~4 fold

B8: DARPin #16 (designed binder)
chain: DLGKKLLEAARAGQDDEVRILMANGADVNAADPAGWTPLHLAACYGHLEIVGVLLKNGADVNALDWGGWTPLHLAAVIGHLEIVGVLLKHGADVNATDLSGWTPLHLAAFRGHLEIVEVLLKHGADVNAQDKFGKTAFDISIDNGNEDLAEILQSSS
EC50 of Stx2a neutralization, Vero E6 toxin challenge assay (cell viability) [12]: > 1000 nM
